Test results from publication PMC12945441.

Biological target: prefusion SARS-CoV-2 Omicron BA.1 S ectodomain trimer (SARS-CoV-2 Omicron BA.1)
Assay: cryo-EM structure

Question: With “prefusion SARS-CoV-2 Omicron BA.1 S ectodomain trimer (domain or fragment)” as the substance, how does the stoichiometry N read?
Answer: 3
